± gives the uncertainty stated by the source.
Experiment: protein stability index of a GFP-peptide fusion (yeast GPS) (PSI 1-4); higher = more stable; sorted into four equal gates, so the index is relative within each strain
Outline: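 Peptides tiling yeast proteins in 17-residue segments were fused downstream of GFP, with Cherry expressed from the same plasmid. As a pooled library in yeast, mid-log cultures grown in leucine-free medium were sorted into four equal gates by GFP/Cherry fluorescence ratio. Gate plasmids were PCR-amplified and Illumina-sequenced, and barcodes linked reads to strains. Each peptide received a protein stability index equal to the sum of each gate's read frequency times its gate number.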

| Sequence | protein stability index (doa10∆) | protein stability index (pdr5∆) | protein stability index (san1∆) | protein stability index (ubr1∆) |
| --- | --- | --- | --- | --- |
| KELVECHLYSQRMHAIH [NNF1] | 1.96 ± 0.056 | 2.05 ± 0.049 | 2.05 ± 0.085 | 2.23 ± 0.05 |
| KEMTLQKNMNDLLRSQL [YIL149C/MLP2] | 3.08 ± 0.049 | 2.43 ± 0.052 | 2.19 ± 0.082 | 2.64 ± 0.046 |
| KENGQLIGAATKFKGGK [SEC65] | 1.7 ± 0.057 | 1.65 ± 0.073 | 1.54 ± 0.11 | 2.17 ± 0.072 |
| KEQADIYAKQQEQLKQM [ARP7] | 1.75 ± 0.065 | 2.25 ± 0.086 | 1.78 ± 0.14 | 2.88 ± 0.066 |
| KERKLRENIAMLKRFFP [SMC1] | 2.38 ± 0.18 | 2.52 ± 0.14 | 2.65 ± 0.23 | 2.59 ± 0.16 |
| KERLVRDKKEKKQAQKQ [SMB1] | 3.25 ± 0.097 | 3.21 ± 0.086 | 2.82 ± 0.14 | 3.3 ± 0.086 |
| KERNSLKKLKAMNDACY [BRR2] | 3.18 ± 0.086 | 3.16 ± 0.059 | 2.98 ± 0.051 | 3.05 ± 0.06 |
| KERTKSLEHELKRSTEL [YIL149C/MLP2] | 3.04 ± 0.15 | 3.36 ± 0.28 | 2.47 ± 0.12 | 3.12 ± 0.094 |
| KESDLLEETRTTIGDTT [BRN1] | 2.47 ± 0.051 | 3.18 ± 0.064 | 2.99 ± 0.053 | 3.19 ± 0.055 |
| KETTIEKLSSEIENLDK [YIL149C/MLP2] | 2.94 ± 0.068 | 2.89 ± 0.071 | 2.9 ± 0.063 | 3.15 ± 0.056 |
| KEYELLTLQEDYIKDEQ [RPT3] | 3.53 ± 0.12 | 3.13 ± 0.11 | 3.19 ± 0.083 | 3.25 ± 0.065 |
| KEYENHSGELMRQQSKE [SMC1] | 2.83 ± 0.1 | 2.85 ± 0.077 | 2.9 ± 0.05 | 3 ± 0.082 |
| KFANQLHDEYLVSMRYP [RPN3] | 2.35 ± 0.098 | 2.9 ± 0.07 | 2.43 ± 0.081 | 2.76 ± 0.074 |
| KFGYILCVLDYDNIDIQ [RPB7] | 2.02 ± 0.1 | 2.08 ± 0.09 | 3.13 ± 0.11 | 2.04 ± 0.13 |
| KFMELERKTLERQQENL [SWI3] | 2.76 ± 0.17 | 3.23 ± 0.1 | 3.06 ± 0.09 | 3.12 ± 0.071 |
| KFNKSKAKFTSLAVRSL [YCS4] | 2.09 ± 0.065 | 2.01 ± 0.056 | 1.96 ± 0.067 | 1.8 ± 0.039 |
| KFPETSYPILNESSTFL [SIN4] | 2.47 ± 0.04 | 2.71 ± 0.034 | 2.58 ± 0.042 | 2.64 ± 0.032 |
| KFSDLKFILQILQILNL [YML103C/NUP188] | 3.05 ± 0.15 | 2.12 ± 0.29 | 3.48 ± 0.13 | – |
| KGDRALLVKLSKRLPLR [BRR2] | 2.47 ± 0.047 | 2.57 ± 0.042 | 2.34 ± 0.094 | 2.57 ± 0.042 |
| KGEQIAIFPYQDPIFGS [ECM29] | 2.09 ± 0.048 | 2.28 ± 0.053 | 2.37 ± 0.067 | 2.23 ± 0.039 |

| Sequence | protein stability index (doa10∆) | protein stability index (pdr5∆) | protein stability index (san1∆) | protein stability index (ubr1∆) |
| --- | --- | --- | --- | --- |
| KGEVVLVNIRTQTSKEQ [ITC1] | 2.4 ± 0.075 | 2.5 ± 0.15 | 2.58 ± 0.1 | 2.56 ± 0.095 |
| KGEVYTIPLGGSVHKLP [PRE3] | 2.97 ± 0.065 | 2.95 ± 0.082 | 2.84 ± 0.088 | 3.04 ± 0.044 |
| KGNFRTKPFENVEKYPT [SNU114] | – | 3 ± 0.24 | 3.16 ± 0.25 | – |
| KGNLLEGKKVMAPYLPG [RPN2] | 2.14 ± 0.061 | 1.95 ± 0.042 | 2.03 ± 0.068 | 2.14 ± 0.045 |
| KGSRFISTLQVKLYGRE [RPB2] | 2.06 ± 0.065 | 2.3 ± 0.057 | 2.58 ± 0.089 | 2.37 ± 0.056 |
| KGVYLILSEILCQINKC [YML103C/NUP188] | 1.86 ± 0.055 | 1.56 ± 0.047 | 2.23 ± 0.075 | 1.88 ± 0.032 |
| KHEDFVEGISEVQARKS [RPT5] | 3.7 ± 0.24 | – | – | 3.41 ± 0.2 |
| KHGAKKVAKRTKIKPFI [RPL27A] | 2.91 ± 0.081 | 2.97 ± 0.082 | 2.95 ± 0.059 | 3.24 ± 0.035 |
| KHISASIDNDFSEEKAE [YAR002W/NUP60] | 3.04 ± 0.082 | 3.02 ± 0.065 | 3.23 ± 0.066 | 2.97 ± 0.059 |
| KHITVRLTAKRLIEHDP [SRP14] | 2.35 ± 0.057 | 2.52 ± 0.044 | 2.51 ± 0.064 | 2.65 ± 0.035 |
| KHYLEDKLKVYKQAMNE [SNF5] | 3.19 ± 0.093 | 3.18 ± 0.12 | 3.1 ± 0.1 | 3.08 ± 0.067 |
| KIEGCISQVSSIHAIGS [RPB7] | 1.9 ± 0.11 | 2.48 ± 0.16 | 2.11 ± 0.1 | 2.17 ± 0.15 |
| KIGEEDYGEEIKSGVAK [MTW1] | – | 2.93 ± 0.14 | – | 3.31 ± 0.12 |
| KIHLYEKKLEDYCRILS [YGL172W/NUP49] | 1.54 ± 0.11 | 2.34 ± 0.12 | 2.3 ± 0.13 | 1.78 ± 0.19 |
| KIIDNPKSFLKKDQSVL [YMR129W/POM152] | 3.06 ± 0.083 | 3.34 ± 0.098 | 3.07 ± 0.071 | 3.2 ± 0.095 |
| KIKFDESSKLMTVTKVS [BRR2] | 1.75 ± 0.099 | 1.36 ± 0.078 | 1.5 ± 0.2 | 1.35 ± 0.05 |
| KIPDTYTANTSAQSIAS [YAR002W/NUP60] | 1.99 ± 0.049 | 2.13 ± 0.056 | 2.07 ± 0.059 | 2.56 ± 0.034 |
| KIPEREEKSNEVKTPKI [SIR4] | – | 3.24 ± 0.21 | 3.46 ± 0.21 | 3.44 ± 0.15 |
| KIQFHIHFADVAHITTK [RGR1] | 2.88 ± 0.092 | 2.95 ± 0.087 | 2.83 ± 0.07 | 2.83 ± 0.058 |

From the supplement of paper PMC9732359
